Assay in all cases: cleavage_in_vitro
The subject of series [1] is T1, OMNI-104 (metagenomic, unknown).
T1 sequence: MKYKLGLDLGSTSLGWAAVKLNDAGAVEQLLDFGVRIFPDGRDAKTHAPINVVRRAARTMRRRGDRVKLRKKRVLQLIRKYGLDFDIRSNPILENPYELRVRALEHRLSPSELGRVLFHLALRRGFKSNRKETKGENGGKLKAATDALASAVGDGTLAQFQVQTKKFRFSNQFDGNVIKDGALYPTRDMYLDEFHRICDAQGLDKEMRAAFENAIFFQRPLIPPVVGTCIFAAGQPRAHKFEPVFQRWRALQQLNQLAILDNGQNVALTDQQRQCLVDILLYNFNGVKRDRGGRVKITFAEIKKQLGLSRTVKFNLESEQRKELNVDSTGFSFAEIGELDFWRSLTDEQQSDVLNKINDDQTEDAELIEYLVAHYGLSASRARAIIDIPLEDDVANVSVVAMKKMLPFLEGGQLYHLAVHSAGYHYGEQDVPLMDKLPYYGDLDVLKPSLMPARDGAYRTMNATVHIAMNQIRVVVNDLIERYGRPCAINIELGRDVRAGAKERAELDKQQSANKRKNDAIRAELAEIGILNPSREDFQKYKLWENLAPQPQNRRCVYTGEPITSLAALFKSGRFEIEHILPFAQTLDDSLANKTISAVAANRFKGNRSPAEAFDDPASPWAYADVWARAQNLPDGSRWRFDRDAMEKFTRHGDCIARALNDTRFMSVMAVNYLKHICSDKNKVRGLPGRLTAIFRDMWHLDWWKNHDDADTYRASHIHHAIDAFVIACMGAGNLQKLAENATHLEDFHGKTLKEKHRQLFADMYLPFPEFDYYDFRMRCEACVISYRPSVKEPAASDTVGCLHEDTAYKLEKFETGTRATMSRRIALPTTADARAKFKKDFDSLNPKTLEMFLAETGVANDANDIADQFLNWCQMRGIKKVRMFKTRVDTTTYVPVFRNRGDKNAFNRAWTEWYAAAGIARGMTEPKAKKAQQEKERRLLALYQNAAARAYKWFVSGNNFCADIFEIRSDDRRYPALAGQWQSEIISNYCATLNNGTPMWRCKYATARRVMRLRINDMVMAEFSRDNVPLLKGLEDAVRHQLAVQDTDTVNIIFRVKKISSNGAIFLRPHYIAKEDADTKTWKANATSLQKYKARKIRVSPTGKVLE
The note with it: TXTL; PAM NRRRNYCN

Series [2] concerns T2, OMNI-105 (metagenomic, unknown).
T2 sequence: T1 sequence with T1080P, K1084Q
The settings on record: TXTL; PAM NRRRNNNN

For series [3], the system named is T3, OMNI-101 (metagenomic, unknown).
T3 sequence: T1 sequence with A151T, K1084Q
The note with it: TXTL; PAM NRRRNNNN

Series [4] has as its system T4, OMNI-90 (metagenomic, unknown).
T4 sequence: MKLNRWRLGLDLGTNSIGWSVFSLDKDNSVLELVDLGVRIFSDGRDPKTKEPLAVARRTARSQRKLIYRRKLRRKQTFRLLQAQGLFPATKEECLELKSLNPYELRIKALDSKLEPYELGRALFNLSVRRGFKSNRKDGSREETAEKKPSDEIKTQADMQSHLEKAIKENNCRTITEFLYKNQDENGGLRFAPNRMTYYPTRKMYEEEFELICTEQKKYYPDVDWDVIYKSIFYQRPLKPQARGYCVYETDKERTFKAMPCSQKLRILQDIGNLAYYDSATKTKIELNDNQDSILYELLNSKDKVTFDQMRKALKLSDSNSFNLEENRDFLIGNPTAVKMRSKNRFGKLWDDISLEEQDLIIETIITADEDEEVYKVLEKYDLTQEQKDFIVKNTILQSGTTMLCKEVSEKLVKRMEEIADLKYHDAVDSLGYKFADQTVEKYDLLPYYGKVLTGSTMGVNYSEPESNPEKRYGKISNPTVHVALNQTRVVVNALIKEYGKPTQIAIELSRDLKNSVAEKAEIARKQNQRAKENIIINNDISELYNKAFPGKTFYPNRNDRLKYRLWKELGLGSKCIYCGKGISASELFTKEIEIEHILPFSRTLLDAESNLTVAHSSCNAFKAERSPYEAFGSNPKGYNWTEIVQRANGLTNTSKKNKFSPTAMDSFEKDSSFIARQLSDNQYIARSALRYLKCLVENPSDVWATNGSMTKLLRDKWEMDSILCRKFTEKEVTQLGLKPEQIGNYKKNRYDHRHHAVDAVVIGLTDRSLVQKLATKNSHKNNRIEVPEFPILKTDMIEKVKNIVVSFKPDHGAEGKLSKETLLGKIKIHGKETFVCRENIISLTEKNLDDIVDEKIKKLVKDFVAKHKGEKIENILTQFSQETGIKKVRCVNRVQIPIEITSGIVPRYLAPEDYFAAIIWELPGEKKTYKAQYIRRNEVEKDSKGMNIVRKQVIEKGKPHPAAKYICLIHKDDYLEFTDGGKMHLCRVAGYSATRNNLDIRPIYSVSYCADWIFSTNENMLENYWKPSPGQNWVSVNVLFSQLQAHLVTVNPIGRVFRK
The note with it: TXTL, PAM NNATTGYN

Changes are numbered by the printed parent chain.

As for “GGAAGAGCAGAGCCUUGGUCUCGUUGCACCUAGACACCGAAAGGUGUCUUUGUGUUAAUAAGAACCUUUCUUUGGAAAGGAGUUCACCAUUUACAAACAGGCACUUCGGUGUCUGUUUUUUU / GGAAGAGCAGAGCCTTGGTCTCNNNNNNNN / NNNNNNNNGAGACCAAGGCTCTGCTCTTCC [T2 sgRNA 14 V1 ; T2 protospacer + 8N PAM library (pbPOS T2)]”, the values for the activity (1-depletion score) in series [1], in series [2] and in series [3] were 0.98, 0.94 and 0.97, respectively. The sequence “GGAAGAGCAGAGCCUUGGUCUCGUUGCAGGUUGACCGGGAAAGCGGUCAACCUGCUAACAAGGAAACCUUUAGUUUCCGCAAUAUGCUUUAAUAUUCGUUGAGAUUAUUGCGUGAAUAUAGAUAGCACACAAUGCAAAGGGAAAGCUACGGCUUUCCCCCUUUUUUUU / GGAAGAGCAGAGCCTTGGTCTCNNNNNNNN / NNNNNNNNGAGACCAAGGCTCTGCTCTTCC [T2 sgRNA 1 V2 ; T2 protospacer + 8N PAM library (pbPOS T2)]” showed an activity (1-depletion score) in series [4] of 0.94. “GGAAGAGCAGAGCCUUGGUCUCGUUGCAGGUUGACCGGGAAAGCGGUCAACCUGCUAACAAGGAAACCUUUAGUUUCCGCAAUAUGCUUUAAUAUUCGUUGAGAUUAUUGCGUGAAUAUAGAUUUUU / GGAAGAGCAGAGCCTTGGTCTCNNNNNNNN / NNNNNNNNGAGACCAAGGCTCTGCTCTTCC [T2 sgRNA 1 V4 ; T2 protospacer + 8N PAM library (pbPOS T2)]” registered an activity (1-depletion score) in series [4] (two last hairpins deleted) of 0.96. Sequence “GGAAGAGCAGAGCCUUGGUCUCGUUGCAGGUUGACCGGGAAAGCGGUCAACCUGCUAACAAGGAAACCUUUAGUUUCCGCAAUAUGCUUUAAUAUUCGUUGAGAUUAUUGCGUGAAUAUAGAUAGCACACAAUGCUUUUU / GGAAGAGCAGAGCCTTGGTCTCNNNNNNNN / NNNNNNNNGAGACCAAGGCTCTGCTCTTCC [T2 sgRNA 1 V3 ; T2 protospacer + 8N PAM library (pbPOS T2)]” came in with an activity (1-depletion score) in series [4] (terminal hairpin deleted) of 0.95.

For “GGAAGAGCAGAGCCUUGGUCUCGUUGCACCUAGACACCGAGAAAUCGGUGUCUUUGUGUUAAUAAGAACCUUUCUUUGGAAAGGAGUUCACCAUUUACAAACAGGCACUUCGGUGUCUGUUUUUU / GGAAGAGCAGAGCCTTGGTCTCNNNNNNNN / NNNNNNNNGAGACCAAGGCTCTGCTCTTCC [T2 sgRNA 13 V1 ; T2 protospacer + 8N PAM library (pbPOS T2)]”, the activity (1-depletion score) was 0.92 in series [1], 1 in series [2] and 0.98 in series [3]. Turning to “GGAAGAGCAGAGCCUUGGUCUCGUUGCAGGUUGACCGGGAAAGCGGUCAACCUGCUAACAAGGAAACCUUUAGUUUCCGCAAAAUGCUUUUAUAUUCGUUGAGAUUUUUGCGUGAAUAUAGAUAGCACACAAUGCAAAGGGAAAGCUACGGCUUUCCCCCUUUUUUUU / GGAAGAGCAGAGCCTTGGTCTCNNNNNNNN / NNNNNNNNGAGACCAAGGCTCTGCTCTTCC [T2 sgRNA 1 V1 ; T2 protospacer + 8N PAM library (pbPOS T2)]”, in series [4], the activity (1-depletion score) came out at 0.95. Turning to “GGAAGAGCAGAGCCUUGGUCUCGUUGCACCUAGACGAAAGUCUUUGUGUUAAUAAGAACCUUUCUUUGGAAAGGAGUUCACCAUUUACAAACAGGCACUUCGGUGUCUGUUUUUU / GGAAGAGCAGAGCCTTGGTCTCNNNNNNNN / NNNNNNNNGAGACCAAGGCTCTGCTCTTCC [T2 sgRNA 11 V1 ; T2 protospacer + 8N PAM library (pbPOS T2)]”, the activity (1-depletion score) in series [1] was found to be 1; in series [2], 0.98; in series [3], 0.96.

(Values after patent US20240425885.)
